Sequences and labels used below:
T1: AP2-G D1 (Plasmodium falciparum, UniProt Q8I5I9 2123-2245)
T1 sequence: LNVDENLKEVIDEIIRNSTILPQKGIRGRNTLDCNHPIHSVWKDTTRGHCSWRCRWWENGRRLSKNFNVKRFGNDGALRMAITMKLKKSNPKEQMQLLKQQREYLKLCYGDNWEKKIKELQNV

B1: XGTACX_site366 (dsDNA)
DNA 1: TAATATTTCATTAGGTGTACACTACATAGTAGTAGA
DNA 2: TCTACTACTATGTAGTGTACACCTAATGAAATATTA
B2: XGTACX_site6448 (dsDNA)
DNA 1: AATTTATATGTTTTGTGTACACAATTTATTAAATTA
DNA 2: TAATTTAATAAATTGTGTACACAAAACATATAAATT
B3: XGTACX_site4322 (dsDNA)
DNA 1: TTACGATACTTTAGGTGTACACAAATATACATGAAT
DNA 2: ATTCATGTATATTTGTGTACACCTAAAGTATCGTAA
B4: XGTACX_site4032 (dsDNA)
DNA 1: TTCATTTTTTATTATAGTACACATAATATTTGCAGA
DNA 2: TCTGCAAATATTATGTGTACTATAATAAAAAATGAA
B5: XGTACX_site17 (dsDNA)
DNA 1: TTTTACAAATATTACTGTACACATTTTCATATAATT
DNA 2: AATTATATGAAAATGTGTACAGTAATATTTGTAAAA
B6: XGTACX_site5662 (dsDNA)
DNA 1: TTATTCTAAAAAGGGTGTACACAAACGAATGGAAAA
DNA 2: TTTTCCATTCGTTTGTGTACACCCTTTTTAGAATAA
B7: XGTACX_site3357 (dsDNA)
DNA 1: AATATCCACATTAGGAGTACACAGCTAACTGTTTGA
DNA 2: TCAAACAGTTAGCTGTGTACTCCTAATGTGGATATT
B8: XGTACX_site2541 (dsDNA)
DNA 1: ACAGCTACCAGATACTGTACTTTTCTCCAGACTGCA
DNA 2: TGCAGTCTGGAGAAAAGTACAGTATCTGGTAGCTGT
B9: XGTACX_site930 (dsDNA)
DNA 1: ATACATATTAATATGTGTACACATTTTTATTTTTTT
DNA 2: AAAAAAATAAAAATGTGTACACATATTAATATGTAT
B10: XGTACX_site6582 (dsDNA)
DNA 1: TTTCATTTTTTTACATGTACGCAAAAGTGTGTAGTT
DNA 2: AACTACACACTTTTGCGTACATGTAAAAAAATGAAA
B11: XGTACX_site7234 (dsDNA)
DNA 1: ATTTCCTTTTTCTGTTGTACTCATAAAATAATATGT
DNA 2: ACATATTATTTTATGAGTACAACAGAAAAAGGAAAT
B12: XGTACX_site8843 (dsDNA)
DNA 1: ATAATTATTTTCCCGTGTACTTATTTTTTTCAAGTA
DNA 2: TACTTGAAAAAAATAAGTACACGGGAAAATAATTAT
B13: XGTACX_site8781 (dsDNA)
DNA 1: TAAATAAATTTGCACTGTACGCAAAAAAAAAAAAGA
DNA 2: TCTTTTTTTTTTTTGCGTACAGTGCAAATTTATTTA
B14: XGTACX_site8545 (dsDNA)
DNA 1: TTACACATGTTTAACTGTACACATAATAGCAATATT
DNA 2: AATATTGCTATTATGTGTACAGTTAAACATGTGTAA
B15: XGTACX_site7381 (dsDNA)
DNA 1: TATCTTTATATATAGTGTACACATTAAACAAATCTC
DNA 2: GAGATTTGTTTAATGTGTACACTATATATAAAGATA
B16: XGTACX_site3287 (dsDNA)
DNA 1: TTTTACAATATTTTGTGTACTTATATTATGAGCTTA
DNA 2: TAAGCTCATAATATAAGTACACAAAATATTGTAAAA
B17: XGTACX_site2641 (dsDNA)
DNA 1: TATATATATTTAAGGTGTACATAAATAACAAAATAT
DNA 2: ATATTTTGTTATTTATGTACACCTTAAATATATATA

The target of this data set is T1, AP2-G D1. Description: gcPBM; about 25 ug protein; PBS, 1% milk, 0.2 mg/ml BSA, salmon testes DNA, 0.03% Triton X-100. The note with it: tags: N-terminal GST (pGEX-4T-1), kept; label: surface-attached array probe.
As for B1, the binding signal was 12.2 ln median PBM intensity, better of two orientations.
Turning to B2, the binding signal is 12.6 ln median PBM intensity, better of two orientations.
On to B3, for which the binding signal is 12.6 ln median PBM intensity, better of two orientations.
Under B4 stands 12.3 ln median PBM intensity, better of two orientations.
Under B5 stands 12.2 ln median PBM intensity, better of two orientations; under B6, 12.6 ln median PBM intensity, better of two orientations.
Regarding B7, the binding signal is 12.6 ln median PBM intensity, better of two orientations.
The same measure for B8: 12.6 ln median PBM intensity, better of two orientations; for B9: 12.6 ln median PBM intensity, better of two orientations; for B10: 12.6 ln median PBM intensity, better of two orientations.
With B11, the binding signal is 12.2 ln median PBM intensity, better of two orientations.
B12: the binding signal was 12.6 ln median PBM intensity, better of two orientations.
For B13, the binding signal is 12.6 ln median PBM intensity, better of two orientations.
For B14, the binding signal was 12.2 ln median PBM intensity, better of two orientations.
Under B15 stands 12.4 ln median PBM intensity, better of two orientations; under B16, 12.2 ln median PBM intensity, better of two orientations; under B17, 12.3 ln median PBM intensity, better of two orientations.

These data come from publication PMC11417369, “DNA sequence and chromatin differentiate sequence-specific transcription factor binding in the human malaria parasite Plasmodium falciparum”.
